Reference: patent publication US20200017552A1

How the values were obtained:
[1] = molecular target: Influenza H1 hemagglutinin (HA), strain not stated for this experiment; test: biolayer interferometry after incubation at 80 °C; HA strain not stated
[2] = molecular target: HA of Ft. Monmouth influenza virus (on virions) (influenza virus strain Ft. Monmouth); test: cell-based or functional assay

Substance: mAb FI6v3 (antibody)
- reduction of binding activity after 1 hr at 80 °C [1]: 74%
- EC50 values for inhibition of viral replication in vitro [2]: 3.1 µg/mL
